The target of data set [1] is T1, Sul7s (Sulfolobus islandicus Rey15A, UniProt F0NBY5 1-59).
T1 sequence: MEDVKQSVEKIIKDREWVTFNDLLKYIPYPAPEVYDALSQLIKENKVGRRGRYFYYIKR
Nature of the data set: BLI; BLI: 50 mM Tris-Cl pH 7.5, 100 mM NaCl, 1 mM EDTA, 0.02% Tween-20, 30 C; NMR: 20 mM potassium phosphate pH 7.0, 30 mM NaCl, 0.02% NaN3, 298 K. Particulars: protein: recombinant, tags: untagged. In general terms: In BLI a coated tip is dipped into the sample, and binding shifts an interference pattern.

For data set [2], the target named is T1, Sul7s. The data set can be described thus: NMR; 0.7 mM 15N/13C protein, HSQC titration; BLI: 50 mM Tris-Cl pH 7.5, 100 mM NaCl, 1 mM EDTA, 0.02% Tween-20, 30 C; NMR: 20 mM potassium phosphate pH 7.0, 30 mM NaCl, 0.02% NaN3, 298 K. Particulars: protein: recombinant; tags: untagged.
A further data set deals with T2, Sul7s K58A (Sulfolobus islandicus Rey15A, UniProt F0NBY5 1-59, K58A).
T2 sequence: T1 sequence with K58A
Nature of the data set: BLI; BLI: 50 mM Tris-Cl pH 7.5, 100 mM NaCl, 1 mM EDTA, 0.02% Tween-20, 30 C; NMR: 20 mM potassium phosphate pH 7.0, 30 mM NaCl, 0.02% NaN3, 298 K. The note with it: protein: recombinant; tags: untagged; label: 5'-biotin.

Another data set has as its target T3, Sul7s N21A (Sulfolobus islandicus Rey15A, UniProt F0NBY5 1-59, N21A).
T3 sequence: T1 sequence with N21A
The data set is described as above. The note with it: protein: recombinant; tags: untagged; label: 5'-biotin.

For the next data set, the target named is T4, Sul7s K43A (Sulfolobus islandicus Rey15A, UniProt F0NBY5 1-59, K43A).
T4 sequence: T1 sequence with K43A
The data set is described as above. The note with it: protein: recombinant; tags: untagged; label: 5'-biotin.

A further data set addresses T5, Sul7s W17A (Sulfolobus islandicus Rey15A, UniProt F0NBY5 1-59, W17A).
T5 sequence: T1 sequence with W17A
Described as above. The note with it: protein: recombinant; tags: untagged; label: 5'-biotin.

The target of a further data set is T6, Sul7s E33A (Sulfolobus islandicus Rey15A, UniProt F0NBY5 1-59, E33A).
T6 sequence: T1 sequence with E33A
The data set is described as above. Particulars: protein: recombinant; tags: untagged; label: 5'-biotin.

The target of another data set is T7, Sul7s K13A (Sulfolobus islandicus Rey15A, UniProt F0NBY5 1-59, K13A).
T7 sequence: T1 sequence with K13A
The description is as above. Particulars: protein: recombinant; tags: untagged; label: 5'-biotin.

The target of the next data set is T8, Sul7s Y56A (Sulfolobus islandicus Rey15A, UniProt F0NBY5 1-59, Y56A).
T8 sequence: T1 sequence with Y56A
The description is as above. Particulars: protein: recombinant; tags: untagged; label: 5'-biotin.

In the next data set the target is T9, Sul7s D3A (Sulfolobus islandicus Rey15A, UniProt F0NBY5 1-59, D3A).
T9 sequence: T1 sequence with D3A
The description is as above. The note with it: protein: recombinant; tags: untagged; label: 5'-biotin.

The next data set deals with T10, Sul7s T19G (Sulfolobus islandicus Rey15A, UniProt F0NBY5 1-59, T19G).
T10 sequence: T1 sequence with T19G
The description is as above. The note with it: protein: recombinant; tags: untagged; label: 5'-biotin.

The next data set deals with T11, Sul7s R15A (Sulfolobus islandicus Rey15A, UniProt F0NBY5 1-59, R15A).
T11 sequence: T1 sequence with R15A
The data set is described as above. Particulars: protein: recombinant; tags: untagged; label: 5'-biotin.

Another data set addresses T12, Sul7s R52A (Sulfolobus islandicus Rey15A, UniProt F0NBY5 1-59, R52A).
T12 sequence: T1 sequence with R52A
Nature of the data set: BLI; barely detected up to 80 uM protein; BLI: 50 mM Tris-Cl pH 7.5, 100 mM NaCl, 1 mM EDTA, 0.02% Tween-20, 30 C; NMR: 20 mM potassium phosphate pH 7.0, 30 mM NaCl, 0.02% NaN3, 298 K. The note with it: protein: recombinant; tags: untagged; label: 5'-biotin.

Another data set deals with T13, Sul7s R59A (Sulfolobus islandicus Rey15A, UniProt F0NBY5 1-59, R59A).
T13 sequence: T1 sequence with R59A
Described as above. The note with it: protein: recombinant; tags: untagged; label: 5'-biotin.

A further data set deals with T14, Sul7s R49A (Sulfolobus islandicus Rey15A, UniProt F0NBY5 1-59, R49A).
T14 sequence: T1 sequence with R49A
The description is as above. Particulars: protein: recombinant; tags: untagged; label: 5'-biotin.

The next data set has as its target T15, Sul7s D36A (Sulfolobus islandicus Rey15A, UniProt F0NBY5 1-59, D36A).
T15 sequence: T1 sequence with D36A
The data set can be described thus: BLI; text calls decrease marginal, in conflict with table value; BLI: 50 mM Tris-Cl pH 7.5, 100 mM NaCl, 1 mM EDTA, 0.02% Tween-20, 30 C; NMR: 20 mM potassium phosphate pH 7.0, 30 mM NaCl, 0.02% NaN3, 298 K. Particulars: protein: recombinant; tags: untagged; label: 5'-biotin.

Positions count from the first letter of the chain named.

B1: G-rich30 (ssDNA)
DNA: CTGGGGGCTGGGGGCTGGGGGCTGGGGGCT
The term Kd denotes a measure of binding affinity in units of concentration. For B1, in the data set with Sul7s [1] (label: 5'-biotin), the Kd was found to be 17.5 ± 4.8 µM.

B2: S20-F (ssDNA)
DNA: GTAGTCAGACACAGTAGTTC
For B2, in the data set with Sul7s [2], the binding result was “binds”.

B3: S30 (S30-F) (ssDNA)
DNA: TTTCTACCCTTTGGTGCTAATGCCCATACT
As for B3, the Kd in the data set with Sul7s K58A was 26.9 µM; in the data set with Sul7s N21A, 8.92 µM; in the data set with Sul7s K43A, 27.9 µM; with Sul7s [1] (label: 5'-biotin), 5.62 ± 0.95 µM; with Sul7s W17A, 10.7 µM; in the data set with Sul7s E33A, 1210 nM. Moreover, the Kd came to 30.4 µM in the data set with Sul7s K13A; 15.6 µM in the data set with Sul7s Y56A; 6.01 µM in the data set with Sul7s D3A; 14.1 µM with Sul7s T19G; 4.67 µM with Sul7s R15A; 88.3 µM with Sul7s D36A. Moreover, the binding result with Sul7s R52A, with Sul7s R59A and with Sul7s R49A was “no binding” each time.

B4: T30 (ssDNA)
DNA: TTTTTTTTTTTTTTTTTTTTTTTTTTTTTT
With B4, the Kd with Sul7s [1] (label: 5'-biotin) was determined as 1.19 ± 0.3 µM.

B5: D30 (dsDNA)
DNA 1: B3 DNA
DNA 2: AGTATGGGCATTAGCACCAAAGGGTAGAAA
Consider B5, for which the Kd in the data set with Sul7s [1] (label: 5'-biotin on strand 1, blunt) came out at 76.8 ± 16.9 µM.

The values are drawn from article PMC8998557, “A Novel Family of Winged-Helix Single-Stranded DNA-Binding Proteins from Archaea”.
